Where a chain is given by its changes, count along the chain named. In names and notes the source's numbering stands. Like-named read-outs stand apart in the source and are kept apart here. *1 amine or outer side, *2 acyl side, *3 side chain or, on linkers, in order; H or OH if unused. Where no end group is shown, it is not given here. The star is where a group is joined. Suc = O=C(CCC(=O)[*:2])[*:1]; Crotonyl(E) = C/C=C/C(=O)*; Propionyl = CCC(=O)*; Butyryl = CCCC(=O)*
Key:
AF9-YEATS Y78W [1] = biological target: T1, AF9-YEATS Y78W (Homo sapiens, UniProt P42568, Y78W); test: Tryptophan fluorescence binding, AF9-YEATS Y78W; conditions: 20 mM Tris pH 7.5, 500 mM NaCl, 2 mM BME, 25 °C, 1–2 µM protein, peptides aa 5–13, average of three separate experiments ± SD, read-out: Binding affinity Kd
T1 sequence (P42568 1-138 Y78W): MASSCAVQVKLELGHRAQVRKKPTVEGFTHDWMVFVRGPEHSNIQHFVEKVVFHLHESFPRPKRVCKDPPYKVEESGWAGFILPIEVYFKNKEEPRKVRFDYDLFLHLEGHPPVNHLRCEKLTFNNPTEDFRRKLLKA

Taf14-YEATS G82A [2] = biological target: T2, Taf14-YEATS G82A (Saccharomyces cerevisiae, UniProt P35189, G82A); test: biochemical; type: binding, yeast
Target sequence in this assay (P35189 1-137 G82A): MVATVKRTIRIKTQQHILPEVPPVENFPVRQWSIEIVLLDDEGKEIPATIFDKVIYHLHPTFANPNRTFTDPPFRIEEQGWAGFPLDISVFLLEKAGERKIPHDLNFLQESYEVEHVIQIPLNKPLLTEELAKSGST
Experimental: Kd value was calculated by a nonlinear least-squares analysis in Kaleidagraph using the1 Δδ=ΔδmaxL+P+Kd-L+P+Kd^2-4PL/2P where [L] is concentration of free acetyllysine, [P] is concentration of the protein, Δδ is the observed chemical shift change, and Δδmax is the normalized chemical shift change at saturation. Normalized chemical shift changes were calculated using the equation2 Δδ=ΔδH^2+ΔδN/5^2 where Δδ is the change in chemical shift in parts per million (ppm).

Taf14-YEATS G82A [3] = biological target: T2, Taf14-YEATS G82A; test: biochemical
[4] = biological target: T3, AF9-YEATS domain (aa 1-138) (human, UniProt P42568 1-138); test: other fluorescence titration; tryptophan fluorescence; 1-2 µM wild-type or mutated AF9 YEATS domain in 20 mM Tris pH 7.5, 500 mM NaCl, 2 mM BME, 25 °C, increasing concentrations of H3 peptide (aa 5-13); conditions: both partners purified
T3 construct: AF9, human, YEATS domain, aa 1-138, in pET28b; His tag cleaved with thrombin; 15N-labelled for NMR; also called WT AF9-YEATS; source: E. coli BL21 (DE3) RIL, purified (nickel-NTA, ion exchange / size exclusion)
T3 sequence (looked up): T1 sequence (P42568 1-138 Y78W) with W78Y

[5] = biological target: T4, AF9-YEATS domain (aa 1-138) (human, UniProt P42568 1-138)
T4 chain: T1 sequence (P42568 1-138 Y78W) with W78Y

Taf14 YEATS domain [6] = biological target: T5, Taf14 YEATS domain (yeast, UniProt P35189 1-137)
T5 chain: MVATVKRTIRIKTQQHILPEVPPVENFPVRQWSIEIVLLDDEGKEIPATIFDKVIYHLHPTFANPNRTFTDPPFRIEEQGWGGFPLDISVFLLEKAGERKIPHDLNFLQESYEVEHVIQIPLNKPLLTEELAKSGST

Taf14-YEATS G82A (1-137) = biological target: T6, Taf14-YEATS G82A (1-137) (yeast, UniProt P35189 1-137, G82A); test: crystal structure; Taf14-YEATS (1-137) with 5 (wild type) or 10 (G82A) molar equivalents of peptide; sitting drop, 18 °C, PEG 600, citric acid pH 6.0; conditions: both partners purified
T6 construct: Taf14, yeast, YEATS domain, aa 1-137 with G82A (construct used for crystallization); Also crystallized in the apo state; also called G82A mutant; source: E. coli BL21 (DE3) RIL, purified
T6 sequence (looked up): T5 chain with G82A

H3K9acyl = conditions: cited from earlier work
Source text: To assess how AF9-YEATS interacts with both H3K9acyl and DNA, we reconstituted H3K9acyl-containing nucleosome core particles (H3K9cr-NCPs and H3K9ac-NCP) and examined binding of AF9-YEATS to these NCPs and to unmodified NCP in EMSA.

Taf14-YEATS (1-137) = biological target: T7, Taf14-YEATS (1-137) (yeast, UniProt P35189 1-137); test: crystal structure; Taf14-YEATS (1-137) with 5 (wild type) or 10 (G82A) molar equivalents of peptide; sitting drop, 18 °C, PEG 600, citric acid pH 6.0; conditions: both partners purified
T7 construct: Taf14, yeast, YEATS domain, aa 1-137 (construct used for crystallization); GST tag probably cleaved for crystallization (surmise); also called wild-type Taf14-YEATS; source: E. coli BL21 (DE3) RIL, purified (glutathione Sepharose 4B, size exclusion)
T7 sequence (looked up): T5 chain

AF9-YEATS Y78W/A79G = biological target: T8, AF9-YEATS Y78W/A79G (human, UniProt P42568 1-138, Y78W | A79G)
T8 sequence: T1 sequence (P42568 1-138 Y78W) with A79G

Taf14 YEATS domain [7] = biological target: T5, Taf14 YEATS domain; test: NMR
AF9-YEATS Y78W [8] = biological target: T9, AF9-YEATS Y78W (human, UniProt P42568 1-138, Y78W); test: crystal structure; AF9-YEATS (wild type or Y78W) at 6 mg/ml with two molar equivalents of peptide; sitting drop, 4 °C; conditions: both partners purified
T9 construct: AF9, human, YEATS domain, aa 1-138 with Y78W; also called Y78W mutant; source: E. coli BL21 (DE3) RIL, purified
T9 sequence (looked up): T1 sequence (P42568 1-138 Y78W)

Taf14-YEATS W81Y = Taf14-YEATS W81Y (yeast, UniProt P35189 1-137, W81Y)
Taf14 YEATS domain [9] = biological target: T5, Taf14 YEATS domain; test: other fluorescence titration; tryptophan fluorescence; 1-2 µM wild-type or mutated Taf14 YEATS domain in PBS pH 7.4, 25 °C, increasing concentrations of H3 peptide (aa 5-13); excitation 295 or 280 nm
[10] = biological target: T3, AF9-YEATS domain (aa 1-138); test: crystal structure; AF9-YEATS (wild type or Y78W) at 6 mg/ml with two molar equivalents of peptide; sitting drop, 4 °C; conditions: both partners purified
AF9-YEATS Y78W [11] = biological target: T9, AF9-YEATS Y78W; test: other fluorescence titration; tryptophan fluorescence; 1-2 µM wild-type or mutated AF9 YEATS domain in 20 mM Tris pH 7.5, 500 mM NaCl, 2 mM BME, 25 °C, increasing concentrations of H3 peptide (aa 5-13); conditions: both partners purified
AF9-YEATS Y78W [12] = biological target: T10, AF9-YEATS Y78W (human, UniProt P42568 1-138, Y78W)
T10 sequence: T1 sequence (P42568 1-138 Y78W)

In the case of `C/C=C/C(=O)NCCCC[C@H](NC(=O)[C@H](CCCNC(=N)N)NC(=O)[C@H](C)NC(=O)[C@@H](NC(=O)[C@@H](N)CCC(N)=O)[C@@H](C)O)C(=O)N[C@@H](CO)C(=O)N[C@H](C(=O)NCC(=O)NCC(=O)O)[C@@H](C)O` [H3K9cr], the Kd (AF9-YEATS Y78W [1]) is reported as 2 µM, the “Selectivity of G82A mutant for H3K9cr (over H3K9ac)” value (Taf14-YEATS G82A [2]; from NMR titration data for H3K9ac, author's response in peer review file) is reported as “greater than 80 -fold” and the Kd (Taf14-YEATS G82A [3]) is reported as 124 µM.

`CC(=O)NCCCC[C@H](NC(=O)[C@H](CCCNC(=N)N)NC(=O)[C@H](C)NC(=O)[C@@H](NC(=O)[C@@H](N)CCC(N)=O)[C@@H](C)O)C(=O)N[C@@H](CO)C(=O)N[C@H](C(=O)NCC(=O)NCC(=O)O)[C@@H](C)O` [H3K9ac] gave a Kd (Taf14-YEATS G82A [2]) of over 10000 µM.

B1: histone H3K9cr peptide (aa 5-13) (peptide, UniProt P68431 6-14, looked up)
peptide: QTARK(Crotonyl(E))STGG
notes: histone H3, residues 5-13, K9 crotonylated; also called H3K9cr (5-13); source: bought: Synpeptide
With B1 the binding result [4] was “binds”, the Kd [5] was 3.7 µM and the Kd (Taf14 YEATS domain [6]) was 9 µM. B1: binds (Taf14-YEATS G82A (1-137)).

B2: AF9-YEATS F59A/Y78A: AF9-YEATS mutant defective in H3K9acyl binding (protein)
chain: T1 sequence (P42568 1-138 Y78W) with F59A, W78A
modifications: left off: His tag, end not stated, cleaved
In the case of B2, the “H3K9acyl binding of mutant” value (H3K9acyl) is given as “defective in H3K9acyl binding”.

B3: histone H3K9pr (5-13) peptide (peptide, UniProt P68431 6-14, looked up)
peptide: QTARK(Propionyl)STGG
notes: histone H3, residues 5-13, K9 propionylated; also called propionylated H3K9pr peptide
B3: binds (Taf14-YEATS (1-137)).

QTARK(Ac)STGG [histone H3K9ac peptide (limits not stated)] showed a Kd (AF9-YEATS Y78W/A79G) of 2.6 µM.

In the case of QTARK(Suc)STGG [histone H3K9su peptide], the Kd (Taf14 YEATS domain [7]) is reported as over 700 µM.

B4: histone H3K9cr (5-14) peptide (peptide, UniProt P68431 6-15, looked up)
peptide: QTARK(Crotonyl(E))STGGK
notes: histone H3, residues 5-14, K9 crotonylated
B4: binds (AF9-YEATS Y78W [8]).

B5: histone H3K9bu peptide (aa 5-13) (peptide, UniProt P68431 6-14, looked up)
peptide: QTARK(Butyryl)STGG
notes: histone H3, residues 5-13, K9 butyrylated; also called H3K9bu (5-13); source: bought: Synpeptide
With B5 the binding result [4] was “binds”, the Kd (Taf14-YEATS W81Y) was 40 µM and the fold reduction of binding against H3K9cr (Taf14 YEATS domain [9]) was 3 fold. The Kd [5] was 3.9 µM, the Kd (Taf14 YEATS domain [6]) was 28 µM and the binding result (Taf14-YEATS (1-137)) was “binds”.

B6: histone H3K9bu (1-19) peptide (peptide, UniProt P68431 2-20, looked up)
peptide: ARTKQTARKSTGGKAPRKQ
modifications: butyryllysine at K9
notes: histone H3, residues 1-19, K9 butyrylated
B6: binds [10].

B7: histone H3K9ac peptide (aa 5-13) (peptide, UniProt P68431 6-14, looked up)
peptide: QTARK(Ac)STGG
notes: histone H3, residues 5-13, K9 acetylated; source: bought: Synpeptide
In the case of B7, the binding result [4] is reported as “binds”, the Kd (AF9-YEATS Y78W [11]) is reported as 2 µM and the Kd (AF9-YEATS Y78W [12]) is reported as 2.3 µM. It also gave a Kd [5] of 4.3 µM and a Kd (Taf14 YEATS domain [6]) of 130 µM.

Molecule QTARK(Crotonyl(E))STGG [histone H3K9cr peptide (limits not stated)] has a Kd (AF9-YEATS Y78W/A79G) of 2.7 µM and a Kd (Taf14-YEATS W81Y) of 9.2 µM.

— article PMC6212594, “Structural insights into the π-π-π stacking mechanism and DNA-binding activity of the YEATS domain” (Nature Communications, 2018)
